From publication PMC10786891, “Massively parallel profiling of RNA-targeting CRISPR-Cas13d”
Residue numbers refer to the chain shown, from its start. Names may count otherwise.

Molecular target: T1, EsCas13d, nuclease-dead (Eubacterium siraeum, UniProt B0MS50, R295A;H300A;R849A;H854A)
T1 sequence: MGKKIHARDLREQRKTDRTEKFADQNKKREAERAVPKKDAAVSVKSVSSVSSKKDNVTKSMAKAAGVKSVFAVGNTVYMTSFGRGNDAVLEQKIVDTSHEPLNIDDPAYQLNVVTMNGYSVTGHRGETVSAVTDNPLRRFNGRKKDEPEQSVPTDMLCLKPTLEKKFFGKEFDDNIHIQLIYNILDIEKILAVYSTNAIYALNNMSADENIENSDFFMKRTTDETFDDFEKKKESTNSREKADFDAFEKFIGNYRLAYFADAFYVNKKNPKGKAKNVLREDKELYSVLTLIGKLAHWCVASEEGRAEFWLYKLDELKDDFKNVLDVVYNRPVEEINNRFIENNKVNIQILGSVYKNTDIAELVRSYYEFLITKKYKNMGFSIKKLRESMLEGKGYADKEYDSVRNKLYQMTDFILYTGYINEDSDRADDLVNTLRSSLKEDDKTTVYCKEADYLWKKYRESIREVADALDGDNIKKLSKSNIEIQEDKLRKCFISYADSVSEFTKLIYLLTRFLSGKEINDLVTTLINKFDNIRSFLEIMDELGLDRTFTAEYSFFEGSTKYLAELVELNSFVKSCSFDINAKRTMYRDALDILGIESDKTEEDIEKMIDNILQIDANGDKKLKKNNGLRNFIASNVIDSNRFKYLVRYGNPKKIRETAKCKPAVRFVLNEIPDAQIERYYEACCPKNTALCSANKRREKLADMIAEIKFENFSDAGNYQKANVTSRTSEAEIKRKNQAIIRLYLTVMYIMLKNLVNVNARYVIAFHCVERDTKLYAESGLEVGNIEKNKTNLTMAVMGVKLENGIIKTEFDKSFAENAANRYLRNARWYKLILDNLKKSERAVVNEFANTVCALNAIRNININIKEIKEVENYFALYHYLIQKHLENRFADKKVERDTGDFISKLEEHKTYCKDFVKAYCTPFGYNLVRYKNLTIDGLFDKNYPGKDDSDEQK
Test: crRNA (strand 1, pre-loaded); Mg2+; 40 mM Tris-HCl pH 7.5, 150 mM NaCl, 6 mM MgCl2, 1 mM DTT, 0.1% Tween-20, 0.2 mg/ml BSA; 25 C; 10 min per concentration, then washed
Details: tags: His6-TwinStrep-SUMO cleaved; N-terminal SNAP kept (SNAP-Surface 488); label: 3' end held by stalled T7 RNA polymerase

B1: target 1 del7,del16 (mixed)
RNA 1: CACCCGUGCAAAAAUGCAGGGGUCUAAAACUGAGCGGAUAACCUCUCUAUGG
RNA 2: GGGAAUGGAUCCACAUCUACGAAUUCGUACCAUAGGAGGUUAUCGCUCACCGAGAUCGGAAGAGCACACGU
Work on B1 yielded a Kd of 45 ± 6 nM.

B2: target 1 A18C,U19A (mixed)
RNA 1: B1 RNA 1
RNA 2: GGGAAUGGAUCCACAUCUACGAAUUCGUACCAACGAGAGGUUAUCCGCUCACCGAGAUCGGAAGAGCACACGU
B2 showed a Kd of 49 ± 4 nM.

B3: target 1 insC 3' of 22,insA 3' of 6 (mixed)
RNA 1: B1 RNA 1
RNA 2: GGGAAUGGAUCCACAUCUACGAAUUCGUACCCAUAGAGAGGUUAUCCAGCUCACCGAGAUCGGAAGAGCACACGU
Work on B3 yielded a Kd of 12.9 ± 0.9 nM.

B4: target 2 MT 5'PFS UAC 3'PFS AAA (mixed)
RNA 1: CACCCGUGCAAAAUUGCAGGGGUCUAAAACCUUCUCCAAAUUGUUUCAUCCU
RNA 2: GGGAAUGGAUCCACAUCUACGAAUUCUACAGGAUGAAACAAUUUGGAGAAGAAAAGAUCGGAAGAGCACACGU
With B4 the Kd was 6 ± 1.4 nM.

B5: target 2 MT 5'PFS GUG 3'PFS UCA (mixed)
RNA 1: B4 RNA 1
RNA 2: B4 RNA 2 with U27G, A28U, C29G, A52U, A53C
For B5, the Kd was 17.3 ± 2.7 nM.

B6: target 2 MT 5'PFS ACA 3'PFS UAA (mixed)
RNA 1: B4 RNA 1
RNA 2: B4 RNA 2 with U27A, A28C, C29A, A52U
B6 gave a Kd of 4.3 ± 1.4 nM.

B7: target 2 MT 5'PFS AGC 3'PFS ACA (mixed)
RNA 1: B4 RNA 1
RNA 2: B4 RNA 2 with U27A, A28G, A53C
B7 showed a Kd of 7.9 ± 3.2 nM.

B8: target 2 MT 5'PFS AGU 3'PFS CAG (mixed)
RNA 1: B4 RNA 1
RNA 2: B4 RNA 2 with U27A, A28G, C29U, A52C, A54G
Binder B8 has a Kd of 14.2 ± 3.1 nM.

B9: target 2 MT 5'PFS AUC 3'PFS CUU (mixed)
RNA 1: B4 RNA 1
RNA 2: B4 RNA 2 with U27A, A28U, A52C, A53U, A54U
In the case of B9, the Kd is reported as ~90 nM.

B10: target 2 MT 5'PFS GUG 3'PFS UCC (mixed)
RNA 1: B4 RNA 1
RNA 2: B4 RNA 2 with U27G, A28U, C29G, A52U, A53C, A54C
B10 gave a Kd of 42 ± 6 nM.

B11: target 2 MT 5'PFS CAU 3'PFS CUG (mixed)
RNA 1: B4 RNA 1
RNA 2: B4 RNA 2 with U27C, C29U, A52C, A53U, A54G
B11 gave a Kd of 5.4 ± 0.8 nM.

B12: target 2 MT 5'PFS AAU 3'PFS UCA (mixed)
RNA 1: B4 RNA 1
RNA 2: B4 RNA 2 with U27A, C29U, A52U, A53C
Binder B12 has a Kd of 10.4 ± 3.5 nM.

B13: target 2 MT 5'PFS AGU 3'PFS CAU (mixed)
RNA 1: B4 RNA 1
RNA 2: B4 RNA 2 with U27A, A28G, C29U, A52C, A54U
B13 was tested, and the Kd was 11.1 ± 2.7 nM.

B14: target 2 MT 5'PFS ACA 3'PFS UAC (mixed)
RNA 1: B4 RNA 1
RNA 2: B4 RNA 2 with U27A, A28C, C29A, A52U, A54C
Binder B14 has a Kd of ~18 nM.

B15: target 2 MT 5'PFS UAG 3'PFS UAG (mixed)
RNA 1: B4 RNA 1
RNA 2: B4 RNA 2 with C29G, A52U, A54G
Binder B15 has a Kd of 3.7 ± 0.4 nM.

B16: target 2 MT 5'PFS GUG 3'PFS UCU (mixed)
RNA 1: B4 RNA 1
RNA 2: B4 RNA 2 with U27G, A28U, C29G, A52U, A53C, A54U
Binder B16 has a Kd of 18.9 ± 1.8 nM.

B17: target 2 MT 5'PFS ACA 3'PFS UAU (mixed)
RNA 1: B4 RNA 1
RNA 2: B4 RNA 2 with U27A, A28C, C29A, A52U, A54U
With B17 the Kd was 5.1 ± 1.1 nM.

B18: target 2 MT 5'PFS CGC 3'PFS UUG (mixed)
RNA 1: B4 RNA 1
RNA 2: B4 RNA 2 with U27C, A28G, A52U, A53U, A54G
B18 showed a Kd of 8.1 ± 1.4 nM.

B19: target 2 MT 5'PFS UAC 3'PFS AAG (mixed)
RNA 1: B4 RNA 1
RNA 2: B4 RNA 2 with A54G
With B19 the Kd was 5.8 ± 1 nM.

B20: target 2 MT 5'PFS AGA 3'PFS CAC (mixed)
RNA 1: B4 RNA 1
RNA 2: B4 RNA 2 with U27A, A28G, C29A, A52C, A54C
Binder B20 has a Kd of 7.4 ± 1.6 nM.

B21: target 2 MT 5'PFS AGU 3'PFS CAC (mixed)
RNA 1: B4 RNA 1
RNA 2: B4 RNA 2 with U27A, A28G, C29U, A52C, A54C
Work on B21 yielded a Kd of 15 ± 5 nM.

B22: target 2 MT 5'PFS AAC 3'PFS AAA (mixed)
RNA 1: B4 RNA 1
RNA 2: B4 RNA 2 with U27A
Binder B22 has a Kd of 10 ± 5 nM.

B23: target 2 MT 5'PFS CGC 3'PFS UUA (mixed)
RNA 1: B4 RNA 1
RNA 2: B4 RNA 2 with U27C, A28G, A52U, A53U
For B23, the Kd was 11.1 ± 2.5 nM.

B24: target 2 MT 5'PFS AGA 3'PFS CAG (mixed)
RNA 1: B4 RNA 1
RNA 2: B4 RNA 2 with U27A, A28G, C29A, A52C, A54G
B24 gave a Kd of 5.7 ± 0.8 nM.

B25: target 2 MT 5'PFS GUU 3'PFS ACG (mixed)
RNA 1: B4 RNA 1
RNA 2: B4 RNA 2 with U27G, A28U, C29U, A53C, A54G
Binder B25 has a Kd of 17.5 ± 1.4 nM.

B26: target 2 MT 5'PFS GUU 3'PFS ACC (mixed)
RNA 1: B4 RNA 1
RNA 2: B4 RNA 2 with U27G, A28U, C29U, A53C, A54C
With B26 the Kd was 18.1 ± 3 nM.

B27: target 2 MT 5'PFS UUC 3'PFS UAC (mixed)
RNA 1: B4 RNA 1
RNA 2: B4 RNA 2 with A28U, A52U, A54C
In the case of B27, the Kd is reported as 17 ± 6 nM.

B28: target 2 MT 5'PFS GUG 3'PFS UCG (mixed)
RNA 1: B4 RNA 1
RNA 2: B4 RNA 2 with U27G, A28U, C29G, A52U, A53C, A54G
With B28 the Kd was 18.2 ± 2.2 nM.

B29: target 2 MT 5'PFS AUC 3'PFS CUC (mixed)
RNA 1: B4 RNA 1
RNA 2: B4 RNA 2 with U27A, A28U, A52C, A53U, A54C
B29 showed a Kd of 66 ± 25 nM.

B30: target 2 MT 5'PFS AGA 3'PFS CAU (mixed)
RNA 1: B4 RNA 1
RNA 2: B4 RNA 2 with U27A, A28G, C29A, A52C, A54U
B30 showed a Kd of 8 ± 1.9 nM.

B31: target 2 MT 5'PFS UAC 3'PFS AAU (mixed)
RNA 1: B4 RNA 1
RNA 2: B4 RNA 2 with A54U
With B31 the Kd was 10 ± 4 nM.

B32: target 2 MT 5'PFS UAC 3'PFS UGC (mixed)
RNA 1: B4 RNA 1
RNA 2: B4 RNA 2 with A52U, A53G, A54C
For B32, the Kd was 6 ± 0.8 nM.

B33: target 2 MT 5'PFS GUU 3'PFS ACA (mixed)
RNA 1: B4 RNA 1
RNA 2: B4 RNA 2 with U27G, A28U, C29U, A53C
Binder B33 has a Kd of 17.5 ± 2.3 nM.

B34: target 2 MT 5'PFS AGC 3'PFS ACG (mixed)
RNA 1: B4 RNA 1
RNA 2: B4 RNA 2 with U27A, A28G, A53C, A54G
B34 gave a Kd of 7.1 ± 0.9 nM.

B35: target 2 MT 5'PFS GUG 3'PFS CAG (mixed)
RNA 1: B4 RNA 1
RNA 2: B4 RNA 2 with U27G, A28U, C29G, A52C, A54G
B35 was tested, and the Kd was 10.5 ± 0.8 nM.

B36: target 2 MT 5'PFS GUU 3'PFS ACU (mixed)
RNA 1: B4 RNA 1
RNA 2: B4 RNA 2 with U27G, A28U, C29U, A53C, A54U
For B36, the Kd was 15.5 ± 1 nM.

B37: target 2 MT 5'PFS AGA 3'PFS CAA (mixed)
RNA 1: B4 RNA 1
RNA 2: B4 RNA 2 with U27A, A28G, C29A, A52C
B37 was tested, and the Kd was 3.5 ± 0.8 nM.

B38: target 2 MT 5'PFS AUC 3'PFS CUA (mixed)
RNA 1: B4 RNA 1
RNA 2: B4 RNA 2 with U27A, A28U, A52C, A53U
In the case of B38, the Kd is reported as ~90 nM.
